Data as given in US8536230B2, “Methods for regulating gelation of polysaccharide solutions and uses thereof” (University of Virginia Patent Foundation, priority 2006, dated 2013).

Assay: In vitro release of FITC-dextran / FITC-albumin from chitosan-AHP gels in PBS
Format: physicochemical
Conditions: FITC albumin loaded (1, 2, and 3%) gels, PBS 37° C.
Method: FITC dextran loaded samples (0.5×1 cm) were placed in histology cups and incubated in 50 mL PBS at 37° C. in a shaking water bath. At predetermined time points, 5 mL of the release media was removed and replenished with 5 mL of PBS. The FITC dextran concentration was determined spectrophotometrically and the percentage cumulative release was calculated. The three groups include 1% dextran, 0.5% dextran, and 0.5% dextran diluted. (see FIG. 8A).
For FITC-dextran loading, appropriate amounts (0.5, 1, and 5% w/v) of FITC-dextrans were dissolved in chitosan-AHP solutions. The respective dextran loaded solutions were poured into petri dishes and allowed to set at 37° C. for 12 h. Circular discs (8 mm diameter) were bored from the thermo-gelled films for in vitro release studies. […] The FITC-dextran concentration in the release media were determined spectrophotometrically at 491 nm and the percentage cumulative release was calculated based on the total FITC-D content. Statistical significance (p<0.05) was determined using one way ANOVA.
Also tested was the release profile of FITC-labeled bovine serum albumin from chitosan-AHP gels represented as the percentage cumulative release. […] The FITC albumin concentration was determined spectrophotometrically and the percentage cumulative release was calculated. […]

For “FITC-albumin: FITC-labeled bovine serum albumin loaded in chitosan-AHP gels”, the “percentage cumulative release profile” value was “significantly lower compared to FITC-Dextran”.
